{"source": "paper PMC8053092", "about": "“Structural basis for substrate recognition and cleavage by the dimerization-dependent CRISPR–Cas12f nuclease” (Nucleic Acids Research, 2020)", "key": {"[1]": {"biological_target": "the molecule itself", "test": "cryo-EM structure; Cas12f D510A with sgRNA (222 nt) and 60-bp target dsDNA (TTTA PAM), ratio 1:1.2:1.3, 37°C, purified by SEC in 25 mM Tris-HCl pH 7.6, 150 mM NaCl, 2 mM DTT, 1 mM MgCl2; 3.1 Å"}, "[2]": {"biological_target": "the molecule itself", "test": "cryo-EM structure; Cas12f with sgRNA, ratio 1:1.2, 37°C for 30 min in 25 mM Tris-HCl pH 7.6, 150 mM NaCl, 2 mM DTT, 1 mM MgCl2; no target DNA; 3.9 Å"}, "[3]": {"biological_target": "T1, Un1Cas12f1 D510A (Cas14a1; catalytically inactive) (UniProt A0A482D308 1-529, D510A)", "T1 sequence": "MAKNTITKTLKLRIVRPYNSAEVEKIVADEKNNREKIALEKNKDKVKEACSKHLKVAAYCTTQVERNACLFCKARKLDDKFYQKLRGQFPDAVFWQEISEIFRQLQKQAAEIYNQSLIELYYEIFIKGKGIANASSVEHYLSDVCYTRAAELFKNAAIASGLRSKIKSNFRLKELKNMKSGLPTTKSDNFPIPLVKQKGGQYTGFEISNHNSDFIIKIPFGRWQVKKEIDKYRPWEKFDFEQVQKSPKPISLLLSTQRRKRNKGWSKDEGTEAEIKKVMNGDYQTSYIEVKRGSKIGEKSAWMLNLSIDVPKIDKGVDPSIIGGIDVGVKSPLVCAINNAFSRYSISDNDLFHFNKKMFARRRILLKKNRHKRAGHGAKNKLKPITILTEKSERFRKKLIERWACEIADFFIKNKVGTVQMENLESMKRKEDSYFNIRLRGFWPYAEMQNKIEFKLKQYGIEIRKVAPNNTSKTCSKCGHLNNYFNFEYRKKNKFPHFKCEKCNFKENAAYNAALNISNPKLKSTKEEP", "test": "cryo-EM (3.1 A); SEC; 1 mM Mg2+; Complex assembly in 25 mM Tris-HCl pH 7.6, 150 mM NaCl, 2 mM DTT, 1 mM MgCl2, 37 C 30 min; SEC in same buffer", "conditions": "protein: recombinant; tags: N-terminal 10xHis-MBP removed by TEV; chain copies: 2; sgRNA; target and non-target DNA strands blunt 60 bp; guide:target heteroduplex 19-20 bp"}, "Un1Cas12f1 (Cas14a1)": {"biological_target": "T2, Un1Cas12f1 (Cas14a1) (UniProt A0A482D308 1-529)", "T2 sequence": "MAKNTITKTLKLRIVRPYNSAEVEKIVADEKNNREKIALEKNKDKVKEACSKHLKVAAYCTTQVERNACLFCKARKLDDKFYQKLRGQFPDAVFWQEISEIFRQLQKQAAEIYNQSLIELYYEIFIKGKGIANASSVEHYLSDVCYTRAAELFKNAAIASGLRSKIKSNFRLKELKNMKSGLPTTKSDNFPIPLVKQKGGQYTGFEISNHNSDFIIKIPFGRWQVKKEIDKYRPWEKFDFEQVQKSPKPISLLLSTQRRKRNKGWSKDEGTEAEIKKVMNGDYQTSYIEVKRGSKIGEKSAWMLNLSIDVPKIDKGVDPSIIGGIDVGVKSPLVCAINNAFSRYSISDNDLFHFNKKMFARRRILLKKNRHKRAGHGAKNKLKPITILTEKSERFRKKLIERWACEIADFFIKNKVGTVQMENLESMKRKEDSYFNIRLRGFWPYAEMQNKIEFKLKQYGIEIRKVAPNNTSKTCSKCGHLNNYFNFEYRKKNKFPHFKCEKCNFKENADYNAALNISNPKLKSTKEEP", "test": "cryo-EM (3.9 A); SEC; 1 mM Mg2+; no target DNA; Complex assembly in 25 mM Tris-HCl pH 7.6, 150 mM NaCl, 2 mM DTT, 1 mM MgCl2, 37 C 30 min; SEC in same buffer", "conditions": "protein: recombinant; tags: N-terminal 10xHis-MBP removed by TEV; chain copies: 2; four stem-loops, two AR:R duplexes; 1 copy per Cas12f dimer"}}}
{"binder": "Un1Cas12f1 D510A (inactive Cas12f mutant used for the Cas12f-sgRNA-target DNA ternary complex) (enzyme, UniProt A0A482D308 1-529, looked up, Cas12f (UnCas12f1 / Un1Cas12f1, also known as Cas14), full length, 529 amino acids, 61.5 kDa; plasmid Addgene #112500; catalytic D510 changed to alanine; three N-terminal and four C-terminal residues are not modelled; also called Cas12f D510A; Cas12f.2; source: E. coli BL21(DE3), purified (Ni-NTA, TEV cleavage, HiTrap SP, Superdex 200); not shown: 10xHis-MBP, N-terminal, cleaved) MAKNTITKTLKLRIVRPYNSAEVEKIVADEKNNREKIALEKNKDKVKEACSKHLKVAAYCTTQVERNACLFCKARKLDDKFYQKLRGQFPDAVFWQEISEIFRQLQKQAAEIYNQSLIELYYEIFIKGKGIANASSVEHYLSDVCYTRAAELFKNAAIASGLRSKIKSNFRLKELKNMKSGLPTTKSDNFPIPLVKQKGGQYTGFEISNHNSDFIIKIPFGRWQVKKEIDKYRPWEKFDFEQVQKSPKPISLLLSTQRRKRNKGWSKDEGTEAEIKKVMNGDYQTSYIEVKRGSKIGEKSAWMLNLSIDVPKIDKGVDPSIIGGIDVGVKSPLVCAINNAFSRYSISDNDLFHFNKKMFARRRILLKKNRHKRAGHGAKNKLKPITILTEKSERFRKKLIERWACEIADFFIKNKVGTVQMENLESMKRKEDSYFNIRLRGFWPYAEMQNKIEFKLKQYGIEIRKVAPNNTSKTCSKCGHLNNYFNFEYRKKNKFPHFKCEKCNFKENAAYNAALNISNPKLKSTKEEP", "values": [{"measurement": "stoichiometry N", "setting": "[1]", "result": 2}]}
{"binder": "Cas12f (UnCas12f1), used for the Cas12f-sgRNA binary complex (enzyme, UniProt A0A482D308 1-529, looked up, Cas12f (UnCas12f1 / Un1Cas12f1, also known as Cas14), full length, 529 amino acids; plasmid Addgene #112500; The methods say only 'Cas12f proteins' for the binary complex, set against 'Cas12f D510A mutant proteins' for the ternary complex; also called Un1Cas12f1; wild-type Cas12f; source: E. coli BL21(DE3), purified (Ni-NTA, TEV cleavage, HiTrap SP, Superdex 200); not shown: 10xHis-MBP, …) MAKNTITKTLKLRIVRPYNSAEVEKIVADEKNNREKIALEKNKDKVKEACSKHLKVAAYCTTQVERNACLFCKARKLDDKFYQKLRGQFPDAVFWQEISEIFRQLQKQAAEIYNQSLIELYYEIFIKGKGIANASSVEHYLSDVCYTRAAELFKNAAIASGLRSKIKSNFRLKELKNMKSGLPTTKSDNFPIPLVKQKGGQYTGFEISNHNSDFIIKIPFGRWQVKKEIDKYRPWEKFDFEQVQKSPKPISLLLSTQRRKRNKGWSKDEGTEAEIKKVMNGDYQTSYIEVKRGSKIGEKSAWMLNLSIDVPKIDKGVDPSIIGGIDVGVKSPLVCAINNAFSRYSISDNDLFHFNKKMFARRRILLKKNRHKRAGHGAKNKLKPITILTEKSERFRKKLIERWACEIADFFIKNKVGTVQMENLESMKRKEDSYFNIRLRGFWPYAEMQNKIEFKLKQYGIEIRKVAPNNTSKTCSKCGHLNNYFNFEYRKKNKFPHFKCEKCNFKENADYNAALNISNPKLKSTKEEP", "values": [{"measurement": "binding result", "setting": "[2]", "result": "binds"}]}
{"binder": "sgRNA + 60-bp target dsDNA (TTTA PAM) (mixed) RNA: CUUCACUGAUAAAGUGGAGAACCGCUUCACCAAAAGCUGUCCCUUAGGGGAUUAGAACUUGAGUGAAGGUGGGCUGCUUGCAUCAGCCUAAUGUCGAGAAGUGCUUUCUUCGGAAAGUAACCCUCGAAACAAAUUCAUUUUUCCUCUCCAAUUCUGCACAAGAAAGUUGCAGAACCCGAAUAGACGAAUGAAGGAAUGCAACAGUUGACCCAACGUCGCCGG DNA 1: GCTGATGCATCTAGATTGTGCACGCCGGCGACGTTGGGTCAACTTAAATACGTAAGGTGC DNA 2: GCACCTTACGTATTTAAGTTGACCCAACGTCGCCGGCGTGCACAATCTAGATGCATCAGC", "values": [{"measurement": "binding result", "setting": "[3]", "result": "binds"}]}
{"binder": "sgRNA (full length, 222 nt) (structured_RNA) RNA: CUUCACUGAUAAAGUGGAGAACCGCUUCACCAAAAGCUGUCCCUUAGGGGAUUAGAACUUGAGUGAAGGUGGGCUGCUUGCAUCAGCCUAAUGUCGAGAAGUGCUUUCUUCGGAAAGUAACCCUCGAAACAAAUUCAUUUUUCCUCUCCAAUUCUGCACAAGAAAGUUGCAGAACCCGAAUAGACGAAUGAAGGAAUGCAACAGUUGACCCAACGUCGCCGG", "values": [{"measurement": "binding result", "setting": "Un1Cas12f1 (Cas14a1)", "result": "binds"}]}
